Experimental data published in patent US20120269817A1 (Bayer, published 2012).

What was measured:
[1] = molecular target: T1, BSA (bovine, UniProt P02769 25-607); assay: ELISA
T1 construct: also called bovine serum albumin
Description: (§1) To select antibody clones that bind to human TFPI, Fab genes of the phage clones from the second and third round of panning were subcloned into a bacterial expression vector and expressed in E. coli strain TG1. The bacterial lysate was added to the wells of the human TFPI-coated Maxisorp plates. After washing, HRP-conjugated goat anti-human Fab was used as a detection antibody and the plates were developed by adding AmplexRed (Invitrogen) with hydrogen peroxide. A signal of at least five-fold higher than the background was considered as positive. The cross reactivity of the anti-human TFPI antibodies to mouse TFPI was determined by a similar mouse TFPI-binding ELISA. The plates were coated with mouse TFPI (R&D System), BSA and lysozyme. The later two antigens were used as negative controls.

[2] = molecular target: T2, human tissue factor pathway inhibitor (TFPI) (human, UniProt P10646 29-304, limits assumed); assay: ELISA, Fab lysate on coated human TFPI
T2 construct: Bought protein; also called human TFPI; hTFPI
T2 sequence (looked up): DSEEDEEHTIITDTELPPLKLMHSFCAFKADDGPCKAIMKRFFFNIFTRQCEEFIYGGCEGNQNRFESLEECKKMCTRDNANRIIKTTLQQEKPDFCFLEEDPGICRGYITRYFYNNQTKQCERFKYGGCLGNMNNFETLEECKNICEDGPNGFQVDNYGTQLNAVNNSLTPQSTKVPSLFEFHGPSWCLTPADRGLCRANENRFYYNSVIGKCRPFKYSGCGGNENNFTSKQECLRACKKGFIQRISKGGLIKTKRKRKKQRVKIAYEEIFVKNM
Description: as §1

[3] = molecular target: T2, human tissue factor pathway inhibitor …; assay: cell-based or functional assay
[4] = molecular target: T2, human tissue factor pathway inhibitor …; assay: ELISA, Fab on coated TFPI
Description: as §1
(§2) Purified Fab antibodies were used to determine EC₅₀ of anti-TFPI antibodies to human or mouse TFPI. EC₅₀ was assessed in an ELISA, similarly as described above. The results were analyzed using SoftMax. The binding affinity of anti-TFPI antibodies was determined in a Biacore assay. Briefly, the antigen, either human or mouse TFPI, was immobilized on the CM5-chips using the amine coupling kit (GE HealthCare) according to the instructions of the manufacturer. The amount of immobilized TFPI was adjusted to the mass of the antigen to give approximate 300 RU. The antibody Fabs were analyzed in mobile phase and at least five different concentrations (0.1, 0.4, 1.6, 6.4 and 25 nM) of the purified antibodies were used in the Biacore assay. The kinetics and binding affinity were calculated using Biacore T100 Evaluation software.

[5] = molecular target: T3, mouse tissue factor pathway inhibitor (TFPI) (mouse, UniProt O54819 29-289, limits assumed); assay: ELISA, Fab on coated TFPI
T3 construct: Bought protein; also called mouse TFPI; mTFPI
T3 sequence (looked up): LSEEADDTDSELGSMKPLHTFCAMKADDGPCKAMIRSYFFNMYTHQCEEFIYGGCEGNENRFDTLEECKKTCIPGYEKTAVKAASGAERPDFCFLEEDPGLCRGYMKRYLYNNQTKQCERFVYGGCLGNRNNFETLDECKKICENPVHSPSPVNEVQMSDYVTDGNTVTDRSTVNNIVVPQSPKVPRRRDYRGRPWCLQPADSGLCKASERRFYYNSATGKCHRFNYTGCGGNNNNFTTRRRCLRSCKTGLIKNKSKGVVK
Description: as §1, §2

[6] = molecular target: T2, human tissue factor pathway inhibitor …; assay: Biacore, TFPI on CM5 chip, Fab in mobile phase
Description: as §2

[7] = molecular target: T3, mouse tissue factor pathway inhibitor …; assay: Biacore, TFPI on CM5 chip, Fab in mobile phase
Description: as §2

T1 sequence (P02769 25-607 limits assumed): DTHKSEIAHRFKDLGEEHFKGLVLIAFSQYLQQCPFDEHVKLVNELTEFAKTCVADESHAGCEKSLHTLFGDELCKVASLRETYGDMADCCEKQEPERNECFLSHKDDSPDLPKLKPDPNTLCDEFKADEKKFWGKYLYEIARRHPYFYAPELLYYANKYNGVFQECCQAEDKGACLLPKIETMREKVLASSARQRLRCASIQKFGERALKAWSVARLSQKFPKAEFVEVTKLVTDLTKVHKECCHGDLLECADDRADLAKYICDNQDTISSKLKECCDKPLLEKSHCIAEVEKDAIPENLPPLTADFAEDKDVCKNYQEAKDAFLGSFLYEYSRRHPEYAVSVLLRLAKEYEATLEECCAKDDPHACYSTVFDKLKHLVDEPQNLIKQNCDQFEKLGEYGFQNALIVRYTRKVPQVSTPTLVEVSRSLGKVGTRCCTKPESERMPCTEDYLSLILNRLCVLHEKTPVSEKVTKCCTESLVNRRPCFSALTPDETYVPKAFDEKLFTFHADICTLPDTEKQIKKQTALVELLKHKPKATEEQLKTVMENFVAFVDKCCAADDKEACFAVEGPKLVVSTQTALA

B1: TP-3B3 Fab (Fab, V domains shown)
VH: QVQLVESGGGLVQPGGSLRLSCAASGFTFSSYGMHWVRQAPGKGLEWVSNISYMGSNTNYADSVKGRFTISRDNSKNTLYLQMNSLRAEDTAVYYCARGLFPGYFDYWGQGTLVTVSS
VL: DIELTQPASVSVAPGQTARISCSGDNLRSKYAHWYQQKPGQAPVLVIYGDNNRPSGIPERFSGSNSGNTATLTISGTQAEDEADYYCSAYAMGSSPVFGGGTKLTVLG
notes: Human Fab from HuCal Gold, expressed in E. coli TG1
binding result [1]: no binding
binding result [2]: binds

B2: TP-3F2 Fab (Fab, V domains shown)
VH: QVQLVESGGGLVQPGGSLRLSCAASGFTFSSYSMHWVRQAPGKGLEWVSGISYSSSFTYYADSVKGRFTISRDNSKNTLYLQMNSLRAEDTAVYYCARALGGGVDYWGQGTLVTVSS
VL: DIELTQPPSVSVAPGQTARISCSGDNLPSKSVYWYQQKPGQAPVLVIYGDNNRPSGIPERFSGSNSGNTATLTISGTQAEDEADYYCQSWTSRPMVVFGGGTKLTVLG
notes: as for B1
binding result [1]: no binding
binding result [2]: binds

B3: TP-2H10 Fab (Fab, V domains shown)
VH: QVQLQQSGPGLVKPSQTLSLTCAISGDSVSSNGAAWGWIRQSPGRGLEWLGFIYRRSKWYNSYAVSVKSRITINPDTSKNQFSLQLNSVTPEDTAVYYCARQDGMGGMDSWGQGTLVTVSS
VL: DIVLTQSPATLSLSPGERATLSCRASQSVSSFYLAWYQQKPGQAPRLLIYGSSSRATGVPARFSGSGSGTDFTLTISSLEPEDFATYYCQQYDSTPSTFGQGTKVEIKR
notes: as for B1
binding result [1]: no binding
% inhibition of hTFPI activity [3]: 63%
dPT in hemoA plasma [3]: 79.5 s
EC50 [4]: 2.18 nM
EC50 [5]: 32.4 nM
Kd [6]: 10.2 nM
Kd [7]: 11.5 nM

B4: TP-3D3 Fab (Fab, V domains shown)
VH: QVQLVESGGGLVQPGGSLRLSCAASGFTFSSYASWVRQAPGKGLEWVSGISGDGSNTHYADSVKGRFTISRDNSKNTLYLQMNSLRAEDTAVYYCARYDNFYFDVWGQGTLVTVSS
VL: DIELTQPPSVSVAPGQTARISCSGDSLGSKFAHWYQQKPGQAPVLVIYDDSNRPSGIPERFSGSNSGNTATLTISGTQAEDEADYYCSTYTSRSHSYVFGGGTKLTVLG
notes: as for B1
binding result [1]: no binding
binding result [2]: binds

B5: TP-2A5.1 Fab (Fab, V domains shown)
VH: QVQLVESGGGLVQPGGSLRLSCAASGFTFSSYGSWVRQAPGKGLEWVSVISGSGSSTYYADSVKGRFTISRDNSKNTLYLQMNSLRAEDTAVYYCARVNISTHFDVWGQGTLVTVSS
VL: DIELTQPPSVSVAPGQTARISCSGDNIPEKYVHWYQQKPGQAPVLVIHGDNNRPSGIPERFSGSNSGNTATLTISGTQAEDEADYYCQSFDAGSYFVFGGGTKLTVLG
notes: as for B1
binding result [1]: no binding
% inhibition of hTFPI activity [3]: 30%
dPT in hemoA plasma [3]: 70.8 s
EC50 [4]: 28.6 nM
EC50 [5]: 14.5 nM
Kd [6]: 35.4 nM
Kd [7]: 19.6 nM

B6: TP-3H2 Fab (Fab, V domains shown)
VH: QVQLVESGGGLVQPGGSLRLSCAASGFTFNSYYMSWVRQAPGKGLEWVSNISSSGSNTNYADSVKGRFTISRDNSKNTLYLQMNSLRAEDTAVYYCARVHYGFDFWGQGTLVTVSS
VL: DIELTQPPSVSVAPGQTARISCSGDKLGKYYAYWYQQKPGQAPVLVIYGDSKRPSGIPERFSGSNSGNTATLTISGTQAEDEADYYCSSAAFGSTVFGGGTKLTVLG
notes: as for B1
binding result [1]: no binding
binding result [2]: binds

B7: TP-3C2 Fab (Fab, V domains shown)
VH: QVQLQQSGPGLVKPSQTLSLTCAISGDSVSSSSAAWSWIRQSPGRGLEWLGMIYYRSKWYNHYAVSVKSRITINPDTSKNQFSLQLNSVTPEDTAVYYCARGGSGVMDVWGQGTLVTVSS
VL: DIQMTQSPSSLSASVGDRVTITCRASQSITNYLNWYQQKPGKAPKLLIYDVSNLQSGVPSRFSGSGSGTDFTLTISSLQPEDFAVYYCQQYSGYPLTFGQGTKVEIKR
notes: as for B1
binding result [1]: no binding
% inhibition of hTFPI activity [3]: 92%
dPT in hemoA plasma [3]: 68.9 s
EC50 [4]: 59 nM
EC50 [5]: 957 nM
Kd [6]: 17.1 nM
Kd [7]: 28.5 nM

B8: TP-3B4 Fab (Fab, V domains shown)
VH: QVQLQQSGPGLVKPSQTLSLTCAISGDSVSSNGAAWGWIRQSPGRGLEWLGHIYYRSKWYNSYAVSVKSRITINPDTSKNQFSLQLNSVTPEDTAVYYCARWGGIHDGDIYFDYWGQGTLVTVSS
VL: DIQMTQSPSSLSASVGDRVTITCRASQNISNYLNWYQQKPGKAPKLLIYGTSSLQSGVPSRFSGSGSGTDFTLTISSLQPEDFAVYYCQQYGNNPTTFGQGTKVEIKR
notes: as for B1
binding result [1]: no binding
% inhibition of hTFPI activity [3]: 25%
dPT in hemoA plasma [3]: 69.1 s
EC50 [4]: 35.8 nM
EC50 [5]: 34.6 nM
Kd [6]: 14.1 nM
Kd [7]: 20.4 nM

B9: TP-3C3 Fab (Fab, V domains shown)
VH: QVQLQQSGPGLVKPSQTLSLTCAISGDSVSSNSAAWGWIRQSPGRGLEWLGVIYYRSKWYNDYAVSVKSRITINPDTSKNQFSLQLNSVTPEDTAVYYCARARAKKSGGFDYWGQGTLVTVSS
VL: DIQMTQSPSSLSASVGDRVTITCRASQSINPYLNWYQQKPGKAPKLLIYAASNLQSGVPSRFSGSGSGTDFTLTISSLQPEDFAVYYCQQLDNRSITFGQGTKVEIKR
notes: as for B1
binding result [1]: no binding
binding result [2]: binds

B10: TP-2G6 Fab (Fab, V domains shown)
VH: QVQLQQSGPGLVKPSQTLSLTCAISGDSVSSSSAAWSWIRQSPGRGLEWLGIIYYRSKWYNDYAVSVKSRITINPDTSKNQFSLQLNSVTPEDTAVYYCARHSMVGFDVWGQGTLVTVSS
VL: DIVLTQSPATLSLSPGERATLSCRASQYVTSSYLAWYQQKPGQAPRLLIYGSSRATGVPARFSGSGSGTDFTLTISSLEPEDFATYYCQQYSSSPITFGQGTKVEIKR
notes: as for B1
binding result [1]: no binding
% inhibition of hTFPI activity [3]: 86%
dPT in hemoA plasma [3]: 62.8 s
EC50 [4]: 0.48 nM
EC50 [5]: 5.18 nM
Kd [6]: 5.06 nM
Kd [7]: 46.1 nM

B11: TP-2A8 Fab (Fab, V domains shown)
VH: QVQLVESGGGLVQPGGSLRLSCAASGFTFRSYGMSWVRQAPGKGLEWVSSIRGSSSSTYYADSVKGRFTISRDNSKNTLYLQMNSLRAEDTAVYYCARKYRYWFDYWGQGTLVTVSS
VL: DIELTQPPSVSVAPGQTARISCSGDNLRNYYAHWYQQKPGQAPVVVIYYDNNRPSGIPERFSGSNSGNTATLTISGTQAEDEADYYCQSWDDGVPVFGGGTKLTVLG
notes: Human Fab from HuCal Gold, expressed in E. coli TG1; also called Fab-2A8
binding result [1]: no binding
% inhibition of hTFPI activity [3]: 100%
dPT in hemoA plasma [3]: 57.9 s
EC50 [4]: 0.09 nM
EC50 [5]: 0.06 nM
Kd [6]: 1.25 nM
Kd [7]: 3.08 nM

B12: TP-3E1 Fab (Fab, V domains shown)
VH: QVQLVESGGGLVQPGGSLRLSCAASGFTFSNYAMTWVRQAPGKGLEWVSVISSVGSNTYYADSVKGRFTISRDNSKNTLYLQMNSLRAEDTAVYYCARPTKAGRTWWWGPYMDVWGQGTLVTVSS
VL: DIELTQPPSVSVAPGQTARISCSGDNIGSYYAYWYQQKPGQAPVLVIYDDSNRPSGIPERFSGSNSGNTATLTISGTQAEDEADYYCQSYDSTGLLVFGGGTKLTVLG
notes: as for B1
binding result [1]: no binding
binding result [2]: binds

B13: TP-4A7 Fab (Fab, V domains shown)
VH: QVQLVESGGGLVQPGGSLRLSCAASGFTFRNYAMNWVRQAPGKGLEWVSVISGSSSYTYYADSVKGRFTISRDNSKNTLYLQMNSLRAEDTAVYYCARADLPYMVFDYWGQGTLVTVSS
VL: DIELTQPPSVSVAPGQTARISCSGDALGSKFAHWYQQKPGQAPVLVIYDDSERPSGIPERFSGSNSGNTATLTISGTQAEDEADYYCQAYDSGLLYVFGGGTKLTVLG
notes: as for B1
binding result [1]: no binding
binding result [2]: binds

B14: TP-2G5 Fab (Fab, V domains shown)
VH: QVQLQQSGPGLVKPSQTLSLTCAISGDSVSSNSAAWSWIRQSPGRGLEWLGFIYYRSKWYNDYAVSVKSRITINPDTSKNQFSLQLNSVTPEDTAVYYCARHNPDLGFDYWGQGTLVTVSS
VL: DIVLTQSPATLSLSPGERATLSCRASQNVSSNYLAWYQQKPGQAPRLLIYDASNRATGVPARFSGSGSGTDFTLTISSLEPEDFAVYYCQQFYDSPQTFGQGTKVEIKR
notes: as for B1
binding result [1]: no binding
% inhibition of hTFPI activity [3]: 36%
dPT in hemoA plasma [3]: 73.2 s
EC50 [4]: 343 nM
EC50 [5]: 871 nM
Kd [6]: 42.1 nM
Kd [7]: 16.1 nM
